According to patent US20170010270A1 (Chugai, published 2017):

T1: GPC3 peptide, amino acid position 81-110 (SEQ ID NO: 5) (human)
T1 construct: synthetic 30-residue peptide of GPC3
T1 peptide: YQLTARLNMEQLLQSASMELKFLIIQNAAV

T2: GPC3 peptide, amino acid position 541-570 (SEQ ID NO: 28) (human)
T2 construct: synthetic 30-residue peptide of GPC3
T2 peptide: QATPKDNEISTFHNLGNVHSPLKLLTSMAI

T3: GPC3 peptide, amino acid position 61-90 (SEQ ID NO: 4) (human)
T3 construct: synthetic 30-residue peptide of GPC3
T3 peptide: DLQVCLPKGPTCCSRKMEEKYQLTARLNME

T4: GPC3 peptide, amino acid position 301-330 (SEQ ID NO: 16) (human)
T4 construct: synthetic 30-residue peptide of GPC3
T4 peptide: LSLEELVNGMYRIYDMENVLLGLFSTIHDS

T5: GPC3 peptide, amino acid position 361-390 (SEQ ID NO: 19) (human)
T5 construct: synthetic 30-residue peptide of GPC3
T5 peptide: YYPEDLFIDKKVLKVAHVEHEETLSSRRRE

T6: GPC3 peptide, amino acid position 121-150 (SEQ ID NO: 7) (human)
T6 construct: synthetic 30-residue peptide of GPC3
T6 peptide: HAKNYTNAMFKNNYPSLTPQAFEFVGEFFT

T7: GPC3 peptide, amino acid position 241-270 (SEQ ID NO: 13) (human)
T7 construct: synthetic 30-residue peptide of GPC3
T7 peptide: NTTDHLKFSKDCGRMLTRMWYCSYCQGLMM

T8: GPC3 peptide, amino acid position 141-170 (SEQ ID NO: 8) (human)
T8 construct: synthetic 30-residue peptide of GPC3
T8 peptide: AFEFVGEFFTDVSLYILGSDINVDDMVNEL

T9: GPC3 peptide, amino acid position 461-490 (SEQ ID NO: 24) (human)
T9 construct: synthetic 30-residue peptide of GPC3
T9 peptide: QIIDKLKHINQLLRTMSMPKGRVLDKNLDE

T10: GPC3 peptide, amino acid position 181-210 (SEQ ID NO: 10) (human)
T10 construct: synthetic 30-residue peptide of GPC3
T10 peptide: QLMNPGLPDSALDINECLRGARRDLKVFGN

T11: GPC3 peptide, amino acid position 261-290 (SEQ ID NO: 14) (human)
T11 construct: synthetic 30-residue peptide of GPC3
T11 peptide: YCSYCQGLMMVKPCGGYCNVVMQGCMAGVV

T12: GPC3 peptide, amino acid position 381-410 (SEQ ID NO: 20) (human)
T12 construct: synthetic 30-residue peptide of GPC3
T12 peptide: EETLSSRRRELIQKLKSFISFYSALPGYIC

T13: GPC3 peptide, amino acid position 201-230 (SEQ ID NO: 11) (human)
T13 construct: synthetic 30-residue peptide of GPC3
T13 peptide: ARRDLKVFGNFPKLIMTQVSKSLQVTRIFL

T14: GPC3 peptide, amino acid position 221-250 (SEQ ID NO: 12) (human)
T14 construct: synthetic 30-residue peptide of GPC3
T14 peptide: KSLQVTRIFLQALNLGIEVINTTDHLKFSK

T15: GPC3 peptide, amino acid position 421-450 (SEQ ID NO: 22) (human)
T15 construct: synthetic 30-residue peptide of GPC3
T15 peptide: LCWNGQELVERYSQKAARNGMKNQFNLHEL

T16: GPC3 peptide, amino acid position 41-70 (SEQ ID NO: 3) (human)
T16 construct: synthetic 30-residue peptide of GPC3
T16 peptide: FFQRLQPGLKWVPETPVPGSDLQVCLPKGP

T17: GPC3 peptide, amino acid position 521-550 (SEQ ID NO: 27) (human)
T17 construct: synthetic 30-residue peptide of GPC3
T17 peptide: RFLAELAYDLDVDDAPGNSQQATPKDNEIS

T18: GPC3 peptide, amino acid position 321-350 (SEQ ID NO: 17) (human)
T18 construct: synthetic 30-residue peptide of GPC3
T18 peptide: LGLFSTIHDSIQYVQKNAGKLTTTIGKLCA

T19: GPC3 peptide, amino acid position 481-510 (SEQ ID NO: 25) (human)
T19 construct: synthetic 30-residue peptide of GPC3
T19 peptide: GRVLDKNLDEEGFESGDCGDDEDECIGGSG

T20: GPC3 peptide, amino acid position 441-470 (SEQ ID NO: 23) (human)
T20 construct: synthetic 30-residue peptide of GPC3
T20 peptide: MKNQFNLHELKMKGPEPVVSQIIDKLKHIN

T21: GPC3 peptide, amino acid position 281-310 (SEQ ID NO: 15) (human)
T21 construct: synthetic 30-residue peptide of GPC3
T21 peptide: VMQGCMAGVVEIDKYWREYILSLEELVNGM

T22: GPC3 peptide, amino acid position 21-50 (SEQ ID NO: 2) (human)
T22 construct: synthetic 30-residue peptide of GPC3
T22 peptide: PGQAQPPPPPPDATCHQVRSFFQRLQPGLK

T23: GPC3 peptide, amino acid position 101-130 (SEQ ID NO: 6) (human)
T23 construct: synthetic 30-residue peptide of GPC3
T23 peptide: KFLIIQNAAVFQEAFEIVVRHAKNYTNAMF


How the values were obtained:
Assay in all cases: ELISA on immobilised peptide
[1] = biological target: T1, GPC3 peptide, amino acid position …
Protocol: (§1) In order to identify more detailed epitopes for the antibodies, the amino acid sequence of GPC3 was divided into peptides of 30 residues containing 10-residue overlaps, and the corresponding peptides were synthesized (SEQ ID NOs: 1 to 29 in Table 2). Each peptide thus synthesized was dissolved at a concentration of 1 mg/mL in dimethyl sulfoxide and then diluted to 1 μg/mL with PBS. The diluted peptide solution was added at 70 μL/well to a 96-well plate and immobilized thereon at room temperature for 1 hour. After removal of unimmobilized peptides, 20% Blocking-one (Nacalai Tesque, Inc.) was added thereto as a blocking buffer solution at 200 μL/well, and the plate was blocked overnight. After removal of the blocking buffer solution, each well was washed with TBS-T three times, and each antibody diluted to 2 μg/mL with a blocking buffer was then added thereto at 70 μL/well. One hour later, the antibody was removed, and each well was washed three times by the addition of TBS-T at 200 μL/well. An HRP-bound anti-mouse antibody was added at 70 μL/well to each well and reacted therewith for 1 hour. After removal of the antibody, each well was washed with 200 μL/well of TBS-T three times, and a chromogenic reagent ABTS Peroxidase Substrate System (1 component, KPL, Kirkegaard & Perry Laboratories, Inc.) was then added thereto at 70 μL/well and reacted at room temperature for […] to develop color. The reaction was terminated by the addition of 1% SDS at 70 μL/well, and the absorbance at 405 nm was measured using a plate reader.

[2] = biological target: T2, GPC3 peptide, amino acid position …
Protocol: as §1

[3] = biological target: T3, GPC3 peptide, amino acid position 61-90 …
Protocol: as §1

[4] = biological target: T4, GPC3 peptide, amino acid position …
Protocol: as §1

[5] = biological target: T5, GPC3 peptide, amino acid position …
Protocol: as §1

[6] = biological target: T6, GPC3 peptide, amino acid position …
Protocol: as §1

[7] = biological target: T7, GPC3 peptide, amino acid position …
Protocol: as §1

[8] = biological target: T8, GPC3 peptide, amino acid position …
Protocol: as §1

[9] = biological target: T9, GPC3 peptide, amino acid position …
Protocol: as §1

[10] = biological target: T10, GPC3 peptide, amino acid position …
Protocol: as §1

[11] = biological target: T11, GPC3 peptide, amino acid position …
Protocol: as §1

[12] = biological target: T12, GPC3 peptide, amino acid position …
Protocol: as §1

[13] = biological target: T13, GPC3 peptide, amino acid position …
Protocol: as §1

[14] = biological target: T14, GPC3 peptide, amino acid position …
Protocol: as §1

[15] = biological target: T15, GPC3 peptide, amino acid position …
Protocol: as §1

[16] = biological target: T16, GPC3 peptide, amino acid position 41-70 …
Protocol: as §1

[17] = biological target: T17, GPC3 peptide, amino acid position …
Protocol: as §1

[18] = biological target: T18, GPC3 peptide, amino acid position …
Protocol: as §1

[19] = biological target: T19, GPC3 peptide, amino acid position …
Protocol: as §1

[20] = biological target: T20, GPC3 peptide, amino acid position …
Protocol: as §1

[21] = biological target: T21, GPC3 peptide, amino acid position …
Protocol: as §1

[22] = biological target: T22, GPC3 peptide, amino acid position 21-50 …
Protocol: as §1

[23] = biological target: T23, GPC3 peptide, amino acid position …
Protocol: as §1

binding result [1]	binding result [2]	binding result [3]	binding result [4]	binding result [5]	binding result [6]	binding result [7]	binding result [8]	binding result [9]	binding result [10]	binding result [11]	binding result [12]	binding result [13]	binding result [14]	binding result [15]	binding result [16]	binding result [17]	binding result [18]	binding result [19]	binding result [20]	Binder	also measured
no binding (tested: 2 µg/mL)	no binding (tested: 2 µg/mL)	no binding (tested: 2 µg/mL)	no binding (tested: 2 µg/mL)	no binding (tested: 2 µg/mL)	no binding (tested: 2 µg/mL)	no binding (tested: 2 µg/mL)	no binding (tested: 2 µg/mL)	no binding (tested: 2 µg/mL)	no binding (tested: 2 µg/mL)	no binding (tested: 2 µg/mL)	no binding (tested: 2 µg/mL)	no binding (tested: 2 µg/mL)	no binding (tested: 2 µg/mL)	no binding (tested: 2 µg/mL)	no binding (tested: 2 µg/mL)	no binding (tested: 2 µg/mL)	no binding (tested: 2 µg/mL)	no binding (tested: 2 µg/mL)	no binding (tested: 2 µg/mL)	GT607 antibody (antibody, IgG1, V domains shown) VH: EVQLVESGGDVVRPGGSLKLSCAASGFTFSSYGMSWVRQLPDKRLEWVASVGNGGSYRYYPENLKGRFTISRDNTKNTLYLQISGLKSEDTAIYYCARRGAFPYFDVWGAGTTVTVSS VL: QIVLTQSPAIMSASPGEKVTLACSASSSVTYMHWYQQKSGTSPKRWIYETSKLASGVPPRFSGSGSGTSYSLTISTMEAEDAATYYCQQWSSNPLTFGAGTKLELKR	binding result [21]: no binding (tested: 2 µg/mL); binding result [22]: no binding (tested: 2 µg/mL); binding result [23]: no binding (tested: 2 µg/mL)
no binding (tested: 2 µg/mL)	no binding (tested: 2 µg/mL)	no binding (tested: 2 µg/mL)	no binding (tested: 2 µg/mL)	no binding (tested: 2 µg/mL)	no binding (tested: 2 µg/mL)	no binding (tested: 2 µg/mL)	no binding (tested: 2 µg/mL)	no binding (tested: 2 µg/mL)	no binding (tested: 2 µg/mL)	no binding (tested: 2 µg/mL)	no binding (tested: 2 µg/mL)	no binding (tested: 2 µg/mL)	no binding (tested: 2 µg/mL)	no binding (tested: 2 µg/mL)	no binding (tested: 2 µg/mL)	no binding (tested: 2 µg/mL)	no binding (tested: 2 µg/mL)	no binding (tested: 2 µg/mL)	no binding (tested: 2 µg/mL)	GT114 antibody (antibody, IgG1, V domains shown) VH: DVQLQESGPGLVKPSQSLSLTCTVTGYSITSDSAWNWIRQFPGNKLEWMAYIMYSGITSYNPSLKSRISITRDTAKNQFFLQLNSVTTEDSATYYCSRGYWYFDVWGAGTTVTVSS VL: QIVLTQSPAIMSASLGEEITLTCSASSSVSYMHWYQQKSGTSPKLLIYSTSILASGVPSRFSGSGSGTFYSLTISSVEAEDAADYYCLQWITYRTFGGGTKLEIKR	binding result [21]: no binding (tested: 2 µg/mL); binding result [22]: no binding (tested: 2 µg/mL); binding result [23]: no binding (tested: 2 µg/mL)
no binding (tested: 2 µg/mL)	no binding (tested: 2 µg/mL)	no binding (tested: 2 µg/mL)	no binding (tested: 2 µg/mL)	no binding (tested: 2 µg/mL)	no binding (tested: 2 µg/mL)	no binding (tested: 2 µg/mL)	no binding (tested: 2 µg/mL)	no binding (tested: 2 µg/mL)	no binding (tested: 2 µg/mL)	no binding (tested: 2 µg/mL)	no binding (tested: 2 µg/mL)	no binding (tested: 2 µg/mL)	no binding (tested: 2 µg/mL)	no binding (tested: 2 µg/mL)	no binding (tested: 2 µg/mL)	no binding (tested: 2 µg/mL)	no binding (tested: 2 µg/mL)	no binding (tested: 2 µg/mL)	no binding (tested: 2 µg/mL)	GT165 antibody (antibody, IgG1, V domains shown) VH: QVQLQQSGAELVGPGASVKISCKAFGYTFTNHHINWVKQRPGQGLDWIGYINPYNDYTNYNQKFKGKATLTVDKSSSTAYMELSSLTSEDSAVYYCARSDPAWFAYWGQGTLVTVSA VL: DIQMTQSPSSLSASLGGKVTITCKASQDINKNIAWYQHKPGKGPRLLIWYTYTLQPGIPSRFSGSGSGRDYSFSISNLEPEDIATYYCLQYDNLPFTFGTGTKLEIKR	binding result [21]: no binding (tested: 2 µg/mL); binding result [22]: no binding (tested: 2 µg/mL); binding result [23]: no binding (tested: 2 µg/mL)
